According to patent US20160046728:

T1: Ir-CPI (Ixodes ricinus Contact Phase Inhibitor), recombinant
T1 chain: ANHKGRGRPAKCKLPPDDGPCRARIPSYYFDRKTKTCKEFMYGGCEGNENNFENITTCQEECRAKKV

B1: factor XIIa (protein)
chain: IPPWEAPKEHKYKAEEHTVVLTVTGEPCHFPFQYHRQLYHKCTHKGRPGPQPWCATTPNFDQDQRWGYCLEPKKVKDHCSKHSPCQKGGTCVNMPSGPHCLCPQHLTGNHCQKEKCFEPQLLRFFHKNEIWYRTEQAAVARCQCKGPDAHCQRLASQACRTNPCLHGGRCLEVEGHRLCHCPVGYTGAFCDVDTKASCYDGRGLSYRGLARTTLSGAPCQPWASEATYRNVTAEQARNWGLGGHAFCRNPDNDIRPWCFVLNRDRLSWEYCDLAQCQTPTQAAPPTPVSPRLHVPLMPAQPAPPKPQPTTRTPPQSQTPGALPAKREQPPSLTRNGPLSCGQRLRKSLSSMTRVVGGLVALRGAHPYIAALYWGHSFCAGSLIAPCWVLTAAHCLQDRPAPEDLTVVLGQERRNHSCEPCQTLAVRSYRLHEAFSPVSYQHDLALLRLQEDADGSCALLSPYVQPVCLPSGAARPSETTLCQVAGWGHQFEGAEEYASFLQEAQVPFLSLERCSAPDVHGSSILPGMLCAGFLEGGTDACQGDSGGPLVCEDQAAERRLTLQGIISWGSGCGDRNKPGVYTDVAYYLAWIREHTVS
B2: plasmin (protein)
chain: KVYLSECKTGNGKNYRGTMSKTKNGITCQKWSSTSPHRPRFSPATHPSEGLEENYCRNPDNDPQGPWCYTTDPEKRYDYCDILECEEECMHCSGENYDGKISKTMSGLECQAWDSQSPHAHGYIPSKFPNKNLKKNYCRNPDRELRPWCFTTDPNKRWELCDIPRCTTPPPSSGPTYQCLKGTGENYRGNVAVTVSGHTCQHWSAQTPHTHNRTPENFPCKNLDENYCRNPDGKRAPWCHTTNSQVRWEYCKIPSCDSSPVSTEQLAPTAPPELTPVVQDCYHGDGQSYRGTSSTTTTGKKCQSWSSMTPHRHQKTPENYPNAGLTMNYCRNPDADKGPWCFTTDPSVRWEYCNLKKCSGTEASVVAPPPVVLLPDVETPSEEDCMFGNGKGYRGKRATTVTGTPCQDWAAQEPHRHSIFTPETNPRAGLEKNYCRNPDGDVGGPWCYTTNPRKLYDYCDVPQCAAPSFDCGKPQVEPKKCPGRVVGGCVAHPHSWPWQVSLRTRFGMHFCGGTLISPEWVLTAAHCLEKSPRPSSYKVILGAHQEVNLEPHVQEIEVSRLFLEPTRKDIALLKLSSPAVITDKVIPACLPSPNYVVADRTECFITGWGETQGTFGAGLLKEAQLPVIENKVCNRYEFLNGRVQSTELCAGHLAGGTDSCQGDSGGPLVCFEKDKYILQGVTSWGLGCARPNKPGVYVRVSRFVTWIEGVMRNN
B3: t-PA (protein)
chain: SYQVICRDEKTQMIYQQHQSWLRPVLRSNRVEYCWCNSGRAQCHSVPVKSCSEPRCFNGGTCQQALYFSDFVCQCPEGFAGKCCEIDTRATCYEDQGISYRGTWSTAESGAECTNWNSSALAQKPYSGRRPDAIRLGLGNHNYCRNPDRDSKPWCYVFKAGKYSSEFCSTPACSEGNSDCYFGNGSAYRGTHSLTESGASCLPWNSMILIGKVYTAQNPSAQALGLGKHNYCRNPDGDAKPWCHVLKNRRLTWEYCDVPSCSTCGLRQYSQPQFRIKGGLFADIASHPWQAAIFAKHRRSPGERFLCGGILISSCWILSAAHCFQERFPPHHLTVILGRTYRVVPGEEEQKFEVEKYIVHKEFDDDTYDNDIALLQLKSDSSRCAQESSVVRTVCLPPADLQLPDWTECELSGYGKHEALSPFYSERLKEAHVRLYPSSRCTSQHLLNRTVTDNMLCAGDTRSGGPQANLHDACQGDSGGPLVCLNDGRMTLVGIISWGLGCGQKDVPGVYTKVTNYLDWIRDNMRP
B4: factor Xa (protein)
chain 1: ANSFLEEMKKGHLERECMEETCSYEEAREVFEDSDKTNEFWNKYKDGDQCETSPCQNQGKCKDGLGEYTCTCLEGFEGKNCELFTRKLCSLDNGDCDQFCHEEQNSVVCSCARGYTLADNGKACIPTGPYPCGKQTLER
chain 2: IVGGQECKDGECPWQALLINEENEGFCGGTILSEFYILTAAHCLYQAKRFKVRVGDRNTEQEEGGEAVHEVEVVIKHNRFTKETYDFDIAVLRLKTPITFRMNVAPACLPERDWAESTLMTQKTGIVSGFGRTHEKGRQSTRLKMLEVPYVDRNSCKLSSSFIITQNMFCAGYDTKQEDACQGDSGGPHVTRFKDTYFVTGIVSWGEGCARKGKYGIYTKVTAFLKWIDRSMKTRGLPKAKSHAPEVITSSPLK
B5: factor VIIa (protein)
chain: ANAFLEELRPGSLERECKEEQCSFEEAREIFKDAERTKLFWISYSDGDQCASSPCQNGGSCKDQLQSYICFCLPAFEGRNCETHKDDQLICVNENGGCEQYCSDHTGTKRSCRCHEGYSLLADGVSCTPTVEYPCGKIPILEKRNASKPQGRIVGGKVCPKGECPWQVLLLVNGAQLCGGTLINTIWVVSAAHCFDKIKNWRNLIAVLGEHDLSEHDGDEQSRRVAQVIIPSTYVPGTTNHDIALLRLHQPVVLTDHVVPLCLPERTFSERTLAFVRFSLVSGWGQLLDRGATALELMVLNVPRLMTQDCLQQSRKVGDSPNITEYMFCAGYSDGSKDSCKGDSGGPHATHYRGTWYLTGIVSWGQGCATVGHFGVYTRVSQYIEWLQKLMRSEPRPGVLLRAPFP

Biological target: T1, Ir-CPI (Ixodes ricinus Contact Phase …)

Row | Protein | activation of factor XI into factor XIa by factor XIIa (reconstituted system, purified factors, chromogenic substrate) | activation of prekallikrein into kallikrein by factor XIIa (reconstituted system, purified factors, chromogenic substrate) | amidolytic activity on chromogenic substrate (protease:Ir-CPI 1:5)
1 | B1 | Ir-CPI inhibits ... the activation of factor XI into factor XIa by factor XIIa | Ir-CPI inhibits the activation of prekallikrein into kallikrein by factor XIIa | The results obtained did not show any effect of Ir-CPI protein on the amidolytic activity of these factors
2 | B2 |  |  | The results obtained did not show any effect of Ir-CPI protein on the amidolytic activity of these factors
3 | B3 |  |  | The results obtained did not show any effect of Ir-CPI protein on the amidolytic activity of these factors
4 | B4 |  |  | The results obtained did not show any effect of Ir-CPI protein on the amidolytic activity of these factors
5 | B5 |  |  | The results obtained did not show any effect of Ir-CPI protein on the amidolytic activity of these factors
